Source: patent US20080044417A1 (MacroGenics, published 2008)

T1: FcγRIIB (CD32B) on Daudi cells (human, UniProt P31994 43-310)
T1 construct: whole, on cells; also called human B cell tumor line
T1 sequence (looked up): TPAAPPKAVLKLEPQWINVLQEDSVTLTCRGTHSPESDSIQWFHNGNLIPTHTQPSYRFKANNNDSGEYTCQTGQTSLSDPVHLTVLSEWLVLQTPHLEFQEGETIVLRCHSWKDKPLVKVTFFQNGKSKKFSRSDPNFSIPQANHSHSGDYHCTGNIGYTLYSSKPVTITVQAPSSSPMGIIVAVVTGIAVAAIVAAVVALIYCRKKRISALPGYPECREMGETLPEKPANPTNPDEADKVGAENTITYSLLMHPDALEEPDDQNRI

T2: soluble FcγIIA (UniProt P12318 34-217)
T2 construct: also called dimeric soluble FcγRIIa-Fc; FcγRIIA; not shown: the p
T2 sequence (looked up): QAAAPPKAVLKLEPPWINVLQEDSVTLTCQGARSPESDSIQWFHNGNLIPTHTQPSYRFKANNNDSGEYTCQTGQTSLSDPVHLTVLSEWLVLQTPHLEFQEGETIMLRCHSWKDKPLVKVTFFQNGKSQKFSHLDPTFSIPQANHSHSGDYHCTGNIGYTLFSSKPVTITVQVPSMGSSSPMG


Legend:
[1] = target: T1, FcγRIIB (CD32B) on Daudi cells; experiment: FACS on Daudi cells, primary antibody 0.5 ug/ml, PE anti-human IgG Fc secondary
[2] = target: T1, FcγRIIB (CD32B) on Daudi cells; experiment: FACS on Daudi cells, primary antibody 0.5 µg/ml, PE anti-human IgG Fc secondary
Procedure: (§1) Protocol for FACS analysis. Approximately 10⁶ Daudi cells were used for each antibody staining. Cells were washed once with PBS. Primary antibodies (Ch2B6, Hu2B6Hc/ch2B6Lc, human IgG1) were diluted into 0.5, 0.1, 0.02 μg/mL in PBS/1% BSA and 100 μL of diluted antibodies was transferred to the cells. After 30 mins incubation at 4° C., cells were washed once with 1 mL PBS/1% BSA. PE conjugated F(ab′)₂ fragment of goat anti human IgG Fc specific (Jackson ImmunoReseach, Inc.) was used as secondary antibody at 1:1000 dilution. After 30 mins incubation at 4° C., cells were washed once with 1 mL PBS/1% BSA. The cells were then resuspended in 500 μL of PBS/1% BSA and subjected to be FACS analysis.
(§2) Transfections of HEK-293 cells were performed using the following combinations: hu2B6HC/hu2B6LC; hu2B6HC/hu2B6LC(N50Y); hu2B6HC/hu2B6LC(N50Y,V51A); ch2B6HC/ch2B6LC. After three days in culture the amount of human IgG expressed was quantitated by an ELISA assay, using the method described above. Binding to dimeric soluble FcγRIIb-Fc was determined by ELISA assay. […] FACS analysis was then performed to measure the binding of the mAbs to Daudi cells (Table 8).

[3] = target: T1, FcγRIIB (CD32B) on Daudi cells; experiment: FACS on Daudi cells, primary antibody 0.1 ug/ml, PE anti-human IgG Fc secondary
[4] = target: T1, FcγRIIB (CD32B) on Daudi cells; experiment: FACS on Daudi cells, primary antibody 0.02 ug/ml, PE anti-human IgG Fc secondary
[5] = target: T1, FcγRIIB (CD32B) on Daudi cells; experiment: FACS on Daudi cells, primary antibody 0.1 µg/ml, PE anti-human IgG Fc secondary
Procedure: as §1, §2

[6] = target: T1, FcγRIIB (CD32B) on Daudi cells; experiment: FACS on Daudi cells, primary antibody 0.02 µg/ml, PE anti-human IgG Fc secondary
Procedure: as §1, §2

soluble FcγIIA = target: T2, soluble FcγIIA; experiment: ELISA, 100 ng/well soluble FcγIIA coated
Procedure: Protocol for ELISA assay: 100 ng/well of soluble FcγIIA in carbonate buffer was coated on 96-well Maxisorp plates at 4° C. overnight. A serial of two-fold dilution of conditioned medium of Ch2B6; hu2B6HC/hu2B6LC; hu2B6HC/hu2B6LC(N50Y); hu2B6HC/hu2B6LC(N50Y,V51A); and purified IV.3 starting from 25 ng/well was added to the each well. The plate was incubated at room temperature for 1 hour. The binding was detected by HRP conjugated F(ab′)2 goat anti human IgG F(ab′)2 specific secondary antibody for Ch2B6 and all hu2B6 samples and HRP conjugated F(ab′)2 goat anti mouse IgG (H+L) secondary antibody for IV.3. After incubation with the secondary antibody for approximately 45 minutes, the plate was developed using a TMB substrate. After 5 mins incubation, the reaction was stopped by 1% H₂SO₄. The OD₄₅₀ nm was ready by SOFTmax program. Between each step, the plates were washed 3 times with PBS/0.1% Tween 20. The plates were blocked by 0.5% BSA in PBS/0.1% Tween 20 for 30 mins at room temperature before adding the serial diluted antibodies.

Row | Molecule | Mean Fluorescence [1] | Mean Fluorescence [2] | Mean Fluorescence ([2]; record 2) | Mean Fluorescence [3] | Mean Fluorescence [4] | Mean Fluorescence [5] | Mean Fluorescence ([5]; record 2) | Mean Fluorescence [6] | Mean Fluorescence ([6]; record 2) | binding result (soluble FcγIIA)
1 | Human IgG1 (antibody) | 6.07 | 9.49 | 1.23 |  |  |  |  |  |  | 
2 | ch2B6 monoclonal antibody (ch2B6HC/ch2B6LC) | 552 | 193 | 647 | 515 | 168 | 141 | 512 | 45.6 | 173 | 
3 | hu2B6HC/hu2B6LC(N50Y) (antibody, V domains shown, Human IgG; HEK-293 conditioned medium; also called Hu2B6 N50Y; Hu2B6N50Y) VH: QVQLVQSGAEVKKPGASVKVSCKASGYTFTNYWIHWVRQAPGQGLEWMGVIDPSDTYPNYNKKFKGRVTMTTDTSTSTAYMELRSLRSDDTAVYYCARNGDSDYYSGMDYWGQGTTVTVSS VL: EIVLTQSPDFQSVTPKEKVTITCRTSQSIGTNIHWYQQKPDQSPKLLIKYVSESISGVPSRFSGSGSGTDFTLTINSLEAEDAATYYCQQSNTWPFTFGGGTKVEIK |  | 191 |  |  |  | 135 |  | 40.1 |  | no binding
4 | hu2B6HC/hu2B6LC monoclonal antibody (antibody, V domains shown, Human IgG (appropriate constant region segments); HEK-293 conditioned medium; also called humanized 2B6) VH: QVQLVQSGAEVKKPGASVKVSCKASGYTFTNYWIHWVRQAPGQGLEWMGVIDPSDTYPNYNKKFKGRVTMTTDTSTSTAYMELRSLRSDDTAVYYCARNGDSDYYSGMDYWGQGTTVTVSS VL: EIVLTQSPDFQSVTPKEKVTITCRTSQSIGTNIHWYQQKPDQSPKLLIKNVSESISGVPSRFSGSGSGTDFTLTINSLEAEDAATYYCQQSNTWPFTFGGGTKVEIK |  | 202 |  |  |  | 174 |  | 58.6 |  | no binding
5 | hu2B6HC/hu2B6LC(N50Y,V51A) (antibody, V domains shown, Human IgG; HEK-293 conditioned medium; also called Hu2B6N50Y, V51A; Hu2B6N50Y,V51A) VH: QVQLVQSGAEVKKPGASVKVSCKASGYTFTNYWIHWVRQAPGQGLEWMGVIDPSDTYPNYNKKFKGRVTMTTDTSTSTAYMELRSLRSDDTAVYYCARNGDSDYYSGMDYWGQGTTVTVSS VL: EIVLTQSPDFQSVTPKEKVTITCRTSQSIGTNIHWYQQKPDQSPKLLIKYASESISGVPSRFSGSGSGTDFTLTINSLEAEDAATYYCQQSNTWPFTFGGGTKVEIK |  | 167 |  |  |  | 134 |  | 46 |  | no binding
